Results as given in paper PMC3328371.

Target: Dock8 (endogenous) (UniProt Q8C147)
Experiment: anti-Flag co-IP, Dock8 immunoblot
Details: reference: Flag-Mob1B wild type; sites T12,T35

Question: With “Flag-Mob1B (previously MOBKL1A) (from UniProt Q7L9L4) Flag-Mob1B[Thr12Ala/Thr35Ala]” as the substance, how does the “binding against the reference” value read?
Answer: lost
